Assay results: paper PMC4205158 (Structure (London, England : 1993), 2008)
“Also recorded” adds a separate entry of the source.

Tests used:
IRAK1-ki = experiment: GST-pulldown of kinase-inactive mutant IRAK1-ki; conditions: qualitative, HEK293T lysates
IRAK1b = experiment: GST-pulldown of IRAK1b; conditions: qualitative; HEK293T lysates; kinase-inactive IRAK1b

Kd (Rad9(pT192) peptide) [µM] | Molecule | interaction with IRAK1-ki in GST-pulldown (IRAK1-ki) | interaction with IRAK1b in GST-pulldown (IRAK1b)
> 100 | Purified Pellino2 (from UniProt Q9HAT8 1-420) (natural protein) | – | –
– | Pellino2: GST-fusion protein of full-length Pellino2 (human cDNA) (protein, left off: His6, N-terminal, cleaved) MFSPGQEEHCAPNKEPVKYGELVVLGYNGALPNGDRGRRKSRFALYKRPKANGVKPSTVHVISTPQASKAISCKGQHSISYTLSRNQTVVVEYTHDKDTDMFQVGRSTESPIDFVVTDTISGSQNTDEAQITQSTISRFACRIVCDRNEPYTARIFAAGFDSSKNIFLGEKAAKWKNPDGHMDGLTTNGVLVMHPRGGFTEESQPGVWREISVCGDVYTLRETRSAQQRGKLVESETNVLQDGSLIDLCGATLLWRTADGLFHTPTQKHIEALRQEINAARPQCPVGLNTLAFPSINRKEVVEEKQPWAYLSCGHVHGYHNWGHRSDTEANERECPMCRTVGPYVPLWLGCEAGFYVDAGPPTHAFTPCGHVCSEKSAKYWSQIPLPHGTHAFHAACPFCATQLVGEQNCIKLIFQGPID | are not precipitated; also recorded: do not interact | are not precipitated; also recorded: do not interact
